Biological target: RecU protein from Mycoplasma genitalium (RecUMge) (Mycoplasma genitalium) (UniProt Q49422)

“RuvA homologue from Mycoplasma genitalium (RuvAMge), H10-tagged (from UniProt Q49424 1-205) (natural protein)” was tested. Which HJ resolution activity of RecUMge (0.2 uM) on HJ 1.1 preincubated with RecUMge before RuvAMge (0 to 4 uM) was added; percent inhibition (≥20% only at ≥250 nM) did it give?
Its HJ resolution activity of RecUMge (0.2 uM) on HJ 1.1 preincubated with RecUMge before RuvAMge (0 to 4 uM) was added; percent inhibition (≥20% only at ≥250 nM) is over 80%.

What about the HJ resolution activity of RecUMge (0.2 uM) on HJ 1.1 preincubated with RuvAMge (0 to 4 uM) before RecUMge was added; percent reduction of activity (about 20% at 60 nM, highest at 1 uM or more) of the same substance?
Its HJ resolution activity of RecUMge (0.2 uM) on HJ 1.1 preincubated with RuvAMge (0 to 4 uM) before RecUMge was added; percent reduction of activity (about 20% at 60 nM, highest at 1 uM or more) is over 80%.

Source: paper PMC3364216
